The values below are quoted from earlier work in doi:10.1101/2025.09.11.675682.

What all share (assay): ITC
What all share (settings): cited from earlier work

The target in data set [1] is LAT 161-180 (Homo sapiens) (UniProt O43561).
For data set [2], the target named is SLP-76 157-420 (Homo sapiens) (UniProt Q13094).
Data set [3] deals with LAT (Homo sapiens) (UniProt O43561).
Data set [4] has as its target LAT 125-178 (Homo sapiens) (UniProt O43561).
For data set [5], the target named is SLP-76 159-533 (Homo sapiens) (UniProt Q13094).
SLP-76 159-533 (Homo sapiens), sequence (Q13094 159-533): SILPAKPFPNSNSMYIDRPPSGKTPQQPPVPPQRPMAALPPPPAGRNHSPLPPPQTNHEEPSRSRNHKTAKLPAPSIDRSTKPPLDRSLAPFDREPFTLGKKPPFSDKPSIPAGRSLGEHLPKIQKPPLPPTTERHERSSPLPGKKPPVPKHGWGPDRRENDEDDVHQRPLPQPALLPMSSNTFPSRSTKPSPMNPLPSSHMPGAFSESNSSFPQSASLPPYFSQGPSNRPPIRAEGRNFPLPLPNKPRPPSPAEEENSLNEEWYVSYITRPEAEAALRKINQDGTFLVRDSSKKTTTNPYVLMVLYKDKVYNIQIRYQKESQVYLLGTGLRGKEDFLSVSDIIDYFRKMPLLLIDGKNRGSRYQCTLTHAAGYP
The target of data set [6] is LAT 122-140 (Homo sapiens) (UniProt O43561).

SLP-76 157-420 (Homo sapiens), sequence (Q13094 157-420): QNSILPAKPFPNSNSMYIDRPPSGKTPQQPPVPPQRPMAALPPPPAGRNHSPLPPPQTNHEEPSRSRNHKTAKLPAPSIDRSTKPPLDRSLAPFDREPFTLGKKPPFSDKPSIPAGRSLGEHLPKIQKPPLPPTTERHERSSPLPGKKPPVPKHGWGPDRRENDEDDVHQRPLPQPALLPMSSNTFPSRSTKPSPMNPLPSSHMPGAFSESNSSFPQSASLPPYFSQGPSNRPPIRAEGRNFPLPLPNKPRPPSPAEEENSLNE
Gads 1-322 (from UniProt O89100), sequence (O89100 whole entry): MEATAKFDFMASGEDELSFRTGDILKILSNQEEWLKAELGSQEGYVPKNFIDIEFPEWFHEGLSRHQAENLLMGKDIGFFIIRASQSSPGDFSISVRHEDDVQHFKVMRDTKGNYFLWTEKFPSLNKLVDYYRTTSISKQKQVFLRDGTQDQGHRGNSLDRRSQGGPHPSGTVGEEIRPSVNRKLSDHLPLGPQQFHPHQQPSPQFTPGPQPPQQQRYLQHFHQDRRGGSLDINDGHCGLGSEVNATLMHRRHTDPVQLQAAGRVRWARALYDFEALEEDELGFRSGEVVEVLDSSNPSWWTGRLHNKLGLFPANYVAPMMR
LAT 125-178 (Homo sapiens), sequence (O43561 125-178): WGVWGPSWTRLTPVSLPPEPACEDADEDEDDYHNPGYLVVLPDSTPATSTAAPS
PLC-γ1 550-846, sequence (P19174 550-846): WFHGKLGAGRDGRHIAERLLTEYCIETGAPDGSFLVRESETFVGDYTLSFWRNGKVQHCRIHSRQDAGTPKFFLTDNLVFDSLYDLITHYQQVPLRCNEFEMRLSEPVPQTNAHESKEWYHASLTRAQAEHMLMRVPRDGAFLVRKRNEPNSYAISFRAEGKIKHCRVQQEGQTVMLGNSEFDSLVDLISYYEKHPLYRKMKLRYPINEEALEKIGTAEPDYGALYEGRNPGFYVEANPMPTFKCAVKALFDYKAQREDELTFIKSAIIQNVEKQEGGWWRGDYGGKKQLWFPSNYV
Gads 1-322 (from UniProt O75791), sequence (O75791 1-322): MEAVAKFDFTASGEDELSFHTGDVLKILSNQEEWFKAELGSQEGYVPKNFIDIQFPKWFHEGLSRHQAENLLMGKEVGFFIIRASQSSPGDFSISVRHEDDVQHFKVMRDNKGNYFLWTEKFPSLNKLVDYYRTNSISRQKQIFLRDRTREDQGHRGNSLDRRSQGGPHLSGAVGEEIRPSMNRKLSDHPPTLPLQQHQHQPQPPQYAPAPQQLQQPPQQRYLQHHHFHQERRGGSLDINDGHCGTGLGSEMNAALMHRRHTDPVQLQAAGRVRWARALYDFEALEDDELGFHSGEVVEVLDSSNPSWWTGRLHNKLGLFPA
PLC-γ1 1-1219, sequence (P19174 1-1219): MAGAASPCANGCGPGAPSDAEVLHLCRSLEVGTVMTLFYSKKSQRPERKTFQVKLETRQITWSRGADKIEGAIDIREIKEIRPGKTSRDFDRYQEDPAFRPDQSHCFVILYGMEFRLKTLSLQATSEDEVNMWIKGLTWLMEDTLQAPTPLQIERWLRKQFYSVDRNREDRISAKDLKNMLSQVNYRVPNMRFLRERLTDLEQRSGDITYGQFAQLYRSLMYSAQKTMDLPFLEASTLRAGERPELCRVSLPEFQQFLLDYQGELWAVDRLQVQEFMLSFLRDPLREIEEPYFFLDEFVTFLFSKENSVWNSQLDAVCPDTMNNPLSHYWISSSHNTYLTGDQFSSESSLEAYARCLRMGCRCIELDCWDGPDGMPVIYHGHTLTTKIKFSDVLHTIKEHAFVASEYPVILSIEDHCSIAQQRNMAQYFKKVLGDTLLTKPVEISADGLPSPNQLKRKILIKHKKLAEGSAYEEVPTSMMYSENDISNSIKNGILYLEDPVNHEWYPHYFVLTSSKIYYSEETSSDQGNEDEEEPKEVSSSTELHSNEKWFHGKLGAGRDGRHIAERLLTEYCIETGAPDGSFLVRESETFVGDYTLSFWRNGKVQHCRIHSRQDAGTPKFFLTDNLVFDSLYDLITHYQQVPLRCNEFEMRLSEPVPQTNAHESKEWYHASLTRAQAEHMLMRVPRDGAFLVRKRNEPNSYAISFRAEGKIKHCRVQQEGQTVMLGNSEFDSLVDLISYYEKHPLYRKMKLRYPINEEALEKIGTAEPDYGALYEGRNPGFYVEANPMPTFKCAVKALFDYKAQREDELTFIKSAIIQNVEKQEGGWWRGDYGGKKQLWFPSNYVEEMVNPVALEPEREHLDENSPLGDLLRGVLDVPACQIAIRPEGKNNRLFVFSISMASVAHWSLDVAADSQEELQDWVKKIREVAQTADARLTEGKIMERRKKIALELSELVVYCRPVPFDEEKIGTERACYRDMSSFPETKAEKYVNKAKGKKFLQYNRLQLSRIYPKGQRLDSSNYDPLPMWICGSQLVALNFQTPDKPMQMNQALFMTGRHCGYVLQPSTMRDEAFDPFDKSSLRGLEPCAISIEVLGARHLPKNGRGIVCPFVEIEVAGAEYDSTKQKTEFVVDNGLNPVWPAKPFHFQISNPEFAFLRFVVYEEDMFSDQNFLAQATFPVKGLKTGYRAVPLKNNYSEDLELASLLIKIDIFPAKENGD
PLC-γ1, sequence (P19174 2-1290): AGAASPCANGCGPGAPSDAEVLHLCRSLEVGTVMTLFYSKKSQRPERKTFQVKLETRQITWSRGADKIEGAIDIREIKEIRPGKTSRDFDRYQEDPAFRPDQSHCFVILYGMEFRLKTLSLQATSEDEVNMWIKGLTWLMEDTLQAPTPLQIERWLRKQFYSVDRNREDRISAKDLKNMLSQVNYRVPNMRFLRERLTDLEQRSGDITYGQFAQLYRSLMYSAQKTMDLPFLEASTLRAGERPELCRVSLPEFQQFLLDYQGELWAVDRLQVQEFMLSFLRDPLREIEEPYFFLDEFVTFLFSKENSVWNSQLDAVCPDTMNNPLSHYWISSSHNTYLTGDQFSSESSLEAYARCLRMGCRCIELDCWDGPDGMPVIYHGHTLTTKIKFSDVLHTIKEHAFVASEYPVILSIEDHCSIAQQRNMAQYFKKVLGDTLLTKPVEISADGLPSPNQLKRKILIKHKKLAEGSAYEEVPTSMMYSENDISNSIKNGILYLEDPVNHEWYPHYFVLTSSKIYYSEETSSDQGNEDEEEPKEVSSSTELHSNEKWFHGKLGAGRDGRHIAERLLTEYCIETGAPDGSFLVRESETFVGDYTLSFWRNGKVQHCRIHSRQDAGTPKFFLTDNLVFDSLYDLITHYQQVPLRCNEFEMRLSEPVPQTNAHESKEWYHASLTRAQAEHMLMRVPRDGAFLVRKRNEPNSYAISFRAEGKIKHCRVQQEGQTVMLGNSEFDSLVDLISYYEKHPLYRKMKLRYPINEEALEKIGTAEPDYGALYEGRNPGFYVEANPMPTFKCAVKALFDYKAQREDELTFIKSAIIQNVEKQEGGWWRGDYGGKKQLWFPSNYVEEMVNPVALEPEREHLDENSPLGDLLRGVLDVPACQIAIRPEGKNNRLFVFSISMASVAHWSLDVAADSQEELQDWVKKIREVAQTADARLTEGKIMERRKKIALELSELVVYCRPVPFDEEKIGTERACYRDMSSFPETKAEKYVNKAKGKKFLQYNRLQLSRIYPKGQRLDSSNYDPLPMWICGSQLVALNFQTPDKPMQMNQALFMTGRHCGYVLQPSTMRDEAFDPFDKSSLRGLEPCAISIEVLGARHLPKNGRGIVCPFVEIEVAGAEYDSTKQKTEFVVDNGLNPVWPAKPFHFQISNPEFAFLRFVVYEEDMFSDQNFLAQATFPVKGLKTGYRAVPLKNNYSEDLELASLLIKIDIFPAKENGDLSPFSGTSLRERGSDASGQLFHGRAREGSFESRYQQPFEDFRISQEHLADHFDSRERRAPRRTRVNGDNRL
LAT 161-180 (Homo sapiens), sequence (O43561 161-180): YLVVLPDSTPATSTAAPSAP

Take Gads 1-322 (from UniProt O75791): the figures for the Kd in data set [1] and in data set [2] were 164 nM and 19 nM, respectively.

Gads 1-322 (from UniProt O89100): the Kd in data set [3] is 164 nM; in data set [4], 213 nM; in data set [2] it was 19 nM; in data set [5] it was 3.6 nM.

Consider PLC-γ1 1-1219 (from UniProt P19174), for which the Kd in data set [4] is 84 nM.

For the substance PLC-γ1 550-846 (from UniProt P19174), the Kd in data set [6] was 62 nM; in data set [2], 3340 nM.

With PLC-γ1 (from UniProt P19174), the Kd in data set [2] is 3340 nM.
